These results are taken from patent publication US20240299464A1, “BOTANICAL COMPOUNDS, METHODS, AND PROCEDURES FOR MEDICINAL TREATMENT RELATED TO IMMUNOINFLAMMATION, NEUROINFLAMMATION, DEPRESSION, MEMORY, FOCUS, AND NERVE DEGENERATION” (priority 2023, published 2024).

Marks after values point to notes of the source that are not given here.

One experiment has as its system mice. As to the kind of experiment: Forced swimming test (FST), anti-anxiety and stress effects. In kind it is in vivo. As for the experimental part: The anti-anxiety and stress effects of the Ziptamin product were investigated in mice using the forced swim test as reported in Porsolt, et al. (5). Healthy female mice, after acclimatization, were randomly divided into 4 groups, each group consisting of 6 mice, specifically: • Group 1 (Disease control): Mice were administered distilled water; • Group 2 (Control): Mice were administered fluoxetine at a dose of 6.5 mg/kg; • Group 3 (Test sample): Mice were administered Ziptamin at a dose of 25 ml/kg, divided into 2 doses/day 4 hours apart; • Group 4 (Test sample): Mice were administered Ziptamin at a dose of 50 ml/kg, divided into 2 doses/day 4 hours apart.
Mice were administered distilled water or fluoxetine at a volume of 10 ml/kg once a day or Ziptamin at doses of 25 ml/kg and 50 ml/kg for 7 consecutive days, divided into 2 doses/day, with a 4-hour interval between doses. On day 7, 60 minutes after administering distilled water, fluoxetine, or Ziptamin, mice were placed in a cylindrical glass tube (diameter 20 cm, height 50 cm) containing water at a temperature of 23-25° C. and a depth of 20 cm for 6 minutes. Initially, the mice struggled to escape the water, but then gradually adapted and performed only the necessary movements to keep their heads above water (immobility state). Filming lasted for 6 minutes, including 1 minute for the mice to stabilize and adapt, and the remaining 5 minutes to record the movements and behavior of the mice in the water, including swimming time (mice moving their limbs in the water as if rowing in the center of the cylinder), struggling (front limbs moving quickly and strongly in or above the water, with a tendency to swim and hit the front limbs against the walls of the cylinder), and immobility (ceasing to struggle, only performing necessary movements to keep the head afloat) (FIG. 1). The test sample reduced anxiety and stress, decreasing immobility time and increasing swimming and struggling time in the test mice. After 6 minutes, the mice were removed from the water and dried to prevent hypothermia. Results are presented as mean values±SEM (standard error of the mean). Differences between groups were analyzed using the Kruskal-Wallis test and Mann-Whitney test with SPSS 26.0 software. A statistical significance is considered when the p-value is <0.05.

In experiment [1] the test system is mice with immunosuppression induced by cyclophosphamide. The experiment is described as follows: Immune stimulatory effects on mice with immunosuppression induced by cyclophosphamide. In kind it is in vivo. As to conditions: for Body weight: CYP 150 mg/kg i.p. day 1. The method, then: The adult human dosage of Ziptamin is 0.5-1 bottle/day×250 ml/bottle A normal adult weighs about 60 kg→Mouse dose of Ziptamin: Dmouse=(0.5*250*11.76)/60=25 ml/kg and Dmouse=(1*250*11.76)/60=50 ml/kg. The dose conversion factor from adults to mice is 11.76 according to the Guidelines for preclinical and clinical testing of traditional medicine, herbal medicine issued by the Department of Science, Technology and Training-Ministry of Health under Decision No. 141/QD-K2DT dated 27 Oct. 2015.
Healthy male mice, after stable housing, were randomly divided into 5 groups, each with 8 mice: • Group 1 (Physiological): Mice were given distilled water; • Group 2 (Disease control): Mice were given distilled water; • Group 3 (Control): Mice were injected […] with filgrastim at a dose of 50 μg/kg; • Group 4 (Test group): Mice were given Ziptamin at a dose of 25 ml/kg, divided into 2 doses/day 4 hours apart; • Group 5 (Test group): Mice were given Ziptamin at a dose of 50 ml/kg, divided into 2 doses/day 4 hours apart; • Group 1 (physiological) were injected intraperitoneally with 0.9% NaCl, volume 10 ml/kg. Mice from groups 2 to 5 were injected intraperitoneally with CYP (dissolved in 0.9% NaCl) at a single dose of 150 mg/kg on day 1, injection volume 10 ml/kg. Mice in group 3 were subcutaneously injected with filgrastim (dissolved in 5% glucose), dose 50 μg/kg, once a day, from day 2 to day 4, the first dose 24 hours after CYP injection. Mice in groups 4 and 5 were given Ziptamin at doses of 25 ml/kg and 50 ml/kg from day 1 to day 4, divided into 2 doses/day, 4 hours apart between doses. Mice in the test groups were recorded for weight daily before administering distilled water, test sample, or medication. On day 4, one hour after the filgrastim injection or Ziptamin administration, mice were euthanized with CO2 gas, blood was collected from the heart to determine the leukocyte formula at Medlatec clinic; spleen and thymus were collected, rinsed with cold 0.9% NaCl, dried, weighed, and the relative organ mass was determined using the formula:
[formula] • Where: • Porgan: organ weight (g) • Pbody: body weight (g)
Results are presented as mean±SEM (standard error of mean). Differences between groups were analyzed using Kruskal-Wallis and Mann-Whitney tests with SPSS 26.0 software. A difference was considered statistically significant when the p-value <0.05.

The mark [2] stands for this setting: fluoxetine 6.5 mg/kg once a day, 7 days, female mice, n = 6, 5 minutes recorded.
The mark [3] stands for this setting: filgrastim 50 μg/kg day 2 to day 4, CYP 150 mg/kg, blood day 4, n = 8.
The mark [4] stands for this setting: filgrastim 50 μg/kg day 2 to day 4, CYP 150 mg/kg, day 4, n = 8.

Regarding `CNCCC(Oc1ccc(C(F)(F)F)cc1)c1ccccc1` (stereo not drawn) [Fluoxetin, fluoxetine], in the experiment with mice (setting [2]), the “Time Immobility” value worked out at 53.17 ± 29.27 s, the “Time Struggling” value was 15.33 ± 8.52 s and the “Time Swimming” value was determined as 231.50 ± 28.25 s. Also, in the experiment on mice (fluoxetine 6.5 mg/kg, p<0.01), the “decrease in immobility time compared to the disease control group” value was found to be 68.66% and the “increase in swimming time compared to the disease control group” value is recorded as 90.27%. Also, the “paddling time relative to the disease control group” value in the experiment with mice (fluoxetine 6.5 mg/kg, p>0.05) is 1.77 times.

B1: filgrastim (protein, UniProt P09919 31-207, looked up)
Granulocyte …: TPLGPASSLPQSFLLKCLEQVRKIQGDGAALQEKLVSECATYKLCHPEELVLLGHSLGIPWAPLSSCPSQALQLAGCLSQLHSGLFLYQGLLQALEGISPELGPTLDTLQLDVADFATTIWQQMEELGMAPALQPTQGAMPAFASAFQRRAGGVLVASHLQSFLEVSYRVLRHLAQP
modifications: filgrastim
Regarding B1, in experiment [1] (Day 1, filgrastim 50 μg/kg group, n = 8), the Body weight is 19.34 ± 0.97 g. Further, the Body weight in experiment [1] (Day 2, filgrastim 50 μg/kg once a day from day 2, n = 8) was 18.19 ± 1.21 g. The same molecule gave a Body weight in experiment [1] (Day 3, filgrastim 50 μg/kg once a day from day 2, n = 8) of 17.64 ± 1.41 g. The Body weight in experiment [1] (Day 4, filgrastim 50 μg/kg once a day from day 2, n = 8) came to 17.08 ± 1.52 g. Also, in experiment [1] (setting [3]), the “Ratio WBCC Lympho” value came out at 87.26 ± 4.57 %, the “Ratio WBCC Mono” value came to 7.00 ± 1.91 %, the “Ratio WBCC Neutral” value was 5.74 ± 2.84 % and the “Volume WBC Lympho” value was 2.26 ± 0.60**^# 10^9/L. Further, in experiment [1] (setting [3]), the “Volume WBC Mono” value is listed as 0.15 ± 0.10**^# 10^9/L, the “Volume WBC Neutral” value is recorded as 0.25 ± 0.13** 10^9/L and the “Volume WBC Total WBC” value is on record as 2.66 ± 0.73**^# 10^9/L. In experiment [1] (setting [4]), the “Relative weight of the spleen” value stood at 0.16 ± 0.05 % g/g and the “Relative weight of the thymus” value came to 0.06 ± 0.03 % g/g. In addition, the “total white blood cell count, lymphocyte count, monocyte count, proportion of neutrophils and lymphocytes compared to the disease control group” value in experiment [1] (filgrastim 50 μg/kg subcutaneously, p<0.05) is listed as “increase”. In addition, the “weight of the thymus compared to the disease control group” value in experiment [1] (filgrastim 50 μg/kg, end of the experiment) was “remained unchanged”.
